The values that follow come from US20240084003A1 (SIMCERE ZAIMING PHARMACEUTICAL, published 2024).

One assay addresses T1, human CD22 domain5-7-His (human, UniProt P20273 414-687).
T1 construct: also called hCD22 domain5-7-His; not shown: His tag
T1 sequence: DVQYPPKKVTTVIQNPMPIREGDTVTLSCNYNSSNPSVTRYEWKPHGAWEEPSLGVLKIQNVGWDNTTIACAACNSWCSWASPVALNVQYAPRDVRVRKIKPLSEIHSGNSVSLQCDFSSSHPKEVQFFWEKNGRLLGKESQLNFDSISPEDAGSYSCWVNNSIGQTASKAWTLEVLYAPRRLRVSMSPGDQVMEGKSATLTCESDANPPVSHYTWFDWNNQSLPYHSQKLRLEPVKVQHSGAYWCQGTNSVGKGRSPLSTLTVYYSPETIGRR
Nature of the assay: ELISA, plate coated with human CD22 domain5-7-His. In general terms: In an ELISA, binding on a coated surface is turned into a signal by an enzyme label.

For assay [1], the target named is T2, rhesus monkey CD22-ECD-His protein (rhesus monkey, UniProt H9G1X2 18-686).
T2 construct: extracellular domain; also called monkey CD22 protein
T2 sequence: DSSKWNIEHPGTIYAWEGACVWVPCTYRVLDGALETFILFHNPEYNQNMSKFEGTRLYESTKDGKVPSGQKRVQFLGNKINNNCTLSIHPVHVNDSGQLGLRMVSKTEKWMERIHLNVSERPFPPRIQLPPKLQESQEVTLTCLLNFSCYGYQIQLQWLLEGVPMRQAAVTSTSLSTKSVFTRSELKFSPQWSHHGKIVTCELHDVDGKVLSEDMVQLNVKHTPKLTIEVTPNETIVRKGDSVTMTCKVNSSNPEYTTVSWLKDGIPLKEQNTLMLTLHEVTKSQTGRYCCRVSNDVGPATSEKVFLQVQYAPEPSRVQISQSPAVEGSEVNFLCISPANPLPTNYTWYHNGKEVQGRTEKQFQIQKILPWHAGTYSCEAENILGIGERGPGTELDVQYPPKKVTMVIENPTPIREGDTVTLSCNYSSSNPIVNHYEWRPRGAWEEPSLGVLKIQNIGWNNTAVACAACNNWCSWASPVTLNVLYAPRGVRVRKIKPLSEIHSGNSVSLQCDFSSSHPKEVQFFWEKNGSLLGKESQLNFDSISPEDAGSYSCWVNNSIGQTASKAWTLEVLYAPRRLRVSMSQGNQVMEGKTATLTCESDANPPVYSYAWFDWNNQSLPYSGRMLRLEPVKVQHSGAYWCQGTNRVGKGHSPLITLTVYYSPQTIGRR
Nature of the assay: SPR (Biacore), antibody captured on Protein A chip, rhesus CD22 in solution. (In general: Surface plasmon resonance follows binding to a sensor surface in real time, without labels.)

Assay [2] has as its target T3, human CD22-ECD-His protein (human, UniProt P20273 20-687).
T3 construct: Recombinant, from HEK293E cells; also called hCD22-ECD-His; human CD22-His protein; not shown: His tag
T3 sequence: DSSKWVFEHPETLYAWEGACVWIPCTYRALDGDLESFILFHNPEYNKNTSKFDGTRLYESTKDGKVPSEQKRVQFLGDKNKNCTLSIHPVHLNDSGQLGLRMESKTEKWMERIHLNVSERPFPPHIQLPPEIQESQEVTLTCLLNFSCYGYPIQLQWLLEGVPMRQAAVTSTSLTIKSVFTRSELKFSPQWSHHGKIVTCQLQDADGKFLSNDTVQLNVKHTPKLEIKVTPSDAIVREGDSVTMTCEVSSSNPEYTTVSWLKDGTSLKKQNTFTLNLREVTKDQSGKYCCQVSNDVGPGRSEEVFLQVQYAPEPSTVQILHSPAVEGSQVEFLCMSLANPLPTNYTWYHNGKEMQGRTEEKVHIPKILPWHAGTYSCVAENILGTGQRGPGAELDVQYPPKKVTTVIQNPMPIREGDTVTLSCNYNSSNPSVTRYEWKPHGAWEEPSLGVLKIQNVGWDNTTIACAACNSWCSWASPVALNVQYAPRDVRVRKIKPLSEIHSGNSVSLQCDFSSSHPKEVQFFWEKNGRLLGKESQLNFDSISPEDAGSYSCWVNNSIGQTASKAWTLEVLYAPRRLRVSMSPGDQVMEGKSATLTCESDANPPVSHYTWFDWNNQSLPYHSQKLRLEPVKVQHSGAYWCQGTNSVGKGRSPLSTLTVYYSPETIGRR
In words: SPR (Biacore), antibody captured on Protein A chip, CD22-ECD-His in solution. The protocol: Sample buffer and running buffer were HBS-EP+(10 mM HEPES, 150 mM NaCl, 3 mM EDTA, 0.05% surfactant P20) (GE Healthcare; BR-1006-69). The flow-through cell was set to 25° C. The sample block was set to 16° C. Both were pretreated with the running buffer. In each cycle, the antibody to be tested was first captured with a Protein A chip, then a single concentration of CD22 antigen protein was injected. The binding and dissociation process of the antibody and the antigen protein was recorded, and finally Glycine pH 1.5 (GE Healthcare; BR-1003-54) was used to complete chip regeneration. Binding was measured by injecting different concentrations of recombinant human CD22-ECD His protein in solution for 240 s with a flow rate of 30 μL/min. The concentration started from 200 nM (see the detailed results for the actual concentration in the test) and was diluted at 1:1, making a total of 5 concentrations. The dissociation phase was monitored for up to 600 s and was triggered by switching from sample solution to running buffer. The surface was regenerated by washing with a 10 mM of glycine solution (pH 1.5) for 30 s at a flow rate of 30 μL/min. Bulk refractive index difference was corrected by subtracting the response obtained from the goat anti-human Fc surface. Blank injection was also subtracted (=double reference). For calculation of apparent KD and other kinetic parameters, Langmuir 1:1 model was used.

B1: HA22-hIgG1 (antibody, V domains shown)
VH: EVQLVESGGGLVKPGGSLKLSCAASGFAFSIYDMSWVRQTPEKCLEWVAYISSGGGTTYYPDTVKGRFTISRDNAKNTLYLQMSSLKSEDTAMYYCARHSGYGTHWGVLFAYWGQGTLVTVSA
VL: DIQMTQTTSSLSASLGDRVTISCRASQDISNYLNWYQQKPDGTVKLLIYYTSILHSGVPSRFSGSGSGTDYSLTISNLEQEDFATYFCQQGNTLPWTFGCGTKLEIKR
As for B1, the binding result in the assay with human CD22 domain5-7-His is “no binding”. For the same molecule, in assay [1], binding was put at a Kd of 3.41 nM, the koff (commonly the rate constant with which the complex falls apart) is 0.000234 s⁻¹ and the on-rate (kon) (usually a measure of how fast the partners come together) is 68600 M⁻¹ s⁻¹. In assay [2], binding was put at a Kd of 1.33 nM, the koff is 8.96e-05 s⁻¹ and the on-rate (kon) worked out at 67400 M⁻¹ s⁻¹.

B2: F2.99.1 (antibody, human IgG1, lambda, V domains shown)
VH: QVTLKESGPGILQPSQTLSLTCSFSGFSLSTFPMGVGWIRQPSGKGLEWLAHIWWDDDEYYNPVLKSRLTISKDTSKKQVYLRIANVDTVDTATYYCTRANWDRWYFDVWGTGTTVTVSS
VL: QLVLTQSSSASFSLGASAKLTCTLSRQHSAYTIEWYQQQPLKPPKYVMEVKKDGSHSTGDGIPDRFSGSSSGADRYLSISNIQPEDEAIYICGVGDTIKEHFVFGGGTKVTVLG
notes: Chimeric IgG1 lambda
For the molecule B2, the binding result in the assay with human CD22 domain5-7-His is recorded as “no binding”. In assay [1], the dissociation constant Kd (as a rule, a measure of binding affinity in units of concentration) is 14.5 nM; the dissociation rate constant (koff) was determined as 0.000545 s⁻¹; the kon was 37600 M⁻¹ s⁻¹. In assay [2], this molecule gave a Kd of 1.55 nM, a koff of 0.000162 s⁻¹ and a kon of 105000 M⁻¹ s⁻¹.

B3: F2.173.9 (antibody, human IgG1, lambda, V domains shown)
VH: EVQLVESGGDLVKPGESLKLSCEASGFTFSNYAMSWVRQTPDRRLEWVATISSIGSFTYYSDSVKGRFTISRDNVKSTLHLQMNNLKSGDTAIYFCARLGVYFDSWGQGTTLTVSS
VL: QLVLTQSSSASFSLGASAKLTCTLSSQHSTYTIEWYQQQPHKPPKFVMEIKKDGSHYTGDGIPDRFSGSSSGADRYLSISNIQPEDETIYICGVSDMIKDQFVYVFGGGTKVTVLG
notes: Chimeric IgG1 lambda
As for B3, in the assay with human CD22 domain5-7-His, the binding result is “no binding”. In assay [1], this molecule came in with a Kd of 46.7 nM, a koff of 0.000883 s⁻¹ and a kon of 18900 M⁻¹ s⁻¹. Besides, in assay [2], the Kd amounted to 4.74 nM, the koff was found to be 0.000232 s⁻¹ and the kon is 49000 M⁻¹ s⁻¹.
